{"source": "paper PMC4066659", "target": "assembled microtubules", "assay": "co-sedimentation"}
{"substance": "His6-Eg5[Ser1033Asp] (baculovirus) (from UniProt P52732 1-1056) (natural protein)", "values": [{"measurement": "percent of wildtype Eg5 recovered in the microtubule pellet", "value": 42, "unit": "%"}]}
{"substance": "His6-Eg5[Thr926Ala] (baculovirus) (from UniProt P52732 1-1056) (natural protein)", "values": [{"measurement": "percent of wildtype Eg5 recovered in the microtubule pellet", "value": 28, "unit": "%"}]}
